Consider one molecule from patent US20250152663A1, “COMPOSITION FOR PREVENTION OR TREATMENT OF DRY EYE DISEASE COMPRISING HAPLN1” (HAPLNSCIENCE INC., priority 2021, published 2025).

Assay [1] relates to human corneal epithelial cells. The experiment in a line: Scratch wound healing (cell proliferation and migration) under high osmotic pressure. Format: cell-based. The conditions noted are these: HCEC, 450 mOsM. On the procedure:
The human corneal epithelial cells were seeded onto 24 wells and incubated for 24 hours under low osmotic pressure conditions (314 mOsM). Then, after replacing the culture medium with a high osmotic pressure medium (450 mOsM), the cells were incubated for 48 hours. Then, the surface of the Petri dish was vertically scratched and washed twice, and then the culture medium was replaced with the high osmotic pressure medium again and simultaneously the cells were treated with different concentrations of the HAPLN1 protein-containing composition of the present disclosure (FIG. 2A). A reduction in the scratched area was confirmed by obtaining photographs using a microscope at a time of scratching (0 h) and after 30 hours (FIG. 2B). This was imaged and a ratio of an area filled with cells to an initial area was identified by using ImageJ (FIG. 2C).

For assay [2], the system named is goblet cells. Description: Goblet cells (PAS staining), rabbit dry eye model. Type of assay: in vivo, New Zealand white rabbits. On the procedure: (§1) Eyes of the rabbits including conjunctiva were enucleated, fixed with a specific fixing solution to be embedded into paraffin, and microsectioned, followed by staining and analysis according to the purpose. In this regard, the eyeballs were stained by hematoxylin & eosin (H & E) staining and detachment of corneal epithelial tissue was analyzed. After PAS staining, distribution of goblet cells in the conjunctiva was measured. In addition, after conjunctiva epithelium indentation (impression cytology), PAS staining was performed and distribution of goblet cells was measured.
After 15 days of eye examination, on the 1st day after 16 days of drug treatment, eyes were enucleated, subjected to histopathological analysis, and paraffin blocked. Tissue was stained in a section slide by PAS staining (FIG. 17A). The number of goblet cells in a range of 200 μm^2 was measured and quantified (FIG. 17b).

Assay [3] deals with human corneal epithelial cells. Description: CCK-8 cell viability under high osmotic pressure (dry eye cell model). Type of assay: cell-based. The conditions noted are these: HCEC, 450 mOsM. On the procedure: In most dry eye diseases, tear decreases in the aqueous layer in an eyeball due to lacrimal hyposecretion or hyperevaporation of tear. In this case, osmotic pressure increases because water decreases while concentrations of proteins, lipids, carbohydrates, etc. contained in tear are constantly maintained. Based on this principle, in cellular level studies, NaCl is added to a cell culture medium to control the osmotic pressure, establish a dry eye disease model, and evaluate efficacy of a drug. Thus, in the present embodiment, by using a case with an osmotic pressure of 314 mOsM as a normal control and a case with a relatively high osmotic pressure of 450 mOsM as a dry eye disease model, effects of HAPLN1 protein on the relief of dry eye disease in human corneal epithelial cells under the high osmotic pressure conditions were verified. This is related to cell viability of human corneal epithelial cells.
In this experiments, a cell counting kit-8 (CCK-8), which allows a sensitive colorimetric assay used to measure cell viability and cytotoxicity, was used. That is, addition of WST-8, which is a highly water-soluble tetrazolium salt, to cells […] to produce an orange-colored formazan dye in the cells. Because the amount of the dye is related to the number of viable cells, a larger amount of the dye indicates more viable cells. […]

The subject of assay [4] is corneal epithelial cells. Description: Detached corneal epithelial cells (H & E staining), rabbit dry eye model. Format: in vivo, New Zealand white rabbits. The procedure: as §1
After 15 days of eye examination, on the 1st day after 16 days of drug treatment, eyes were enucleated, subjected to histopathological analysis, and paraffin blocked. Tissue was stained in a section slide by H & E staining (FIG. 16A). The number of corneal epithelial cells detached in a range of 200 μm^2 was measured and quantified (FIG. 16B).

Assay [5] has as its system MUC4 mRNA in human corneal epithelial cells. Description: RT-qPCR of mucin mRNA (MUC4) under high osmotic pressure. Type of assay: cell-based. The conditions noted are these: HCEC, 450 mOsM, 10 to 200 ng/ml, particularly 50 to 200 ng/ml, 24 hours; compared to the untreated group. On the procedure:
First, the human corneal epithelial cells (HCECs, 5th passage) were seeded onto 6 wells at a density of […]. After 24 hours, the HCECs were pre-treated with a medium with different osmotic pressures (314 and 450 mOsM). After 48 hours of incubation, the cells were treated with the composition of the present disclosure having different concentrations of rhHAPLN1 (0, 5, 10, 20, 50, 100, and 200 ng/ml) and Cyclosporine A (0.1 μM), as a control drug, for 24 hours. Then, the cells were washed and sampled to perform RT-qPCR (FIG. 5A).
Total mRNA was purified from the HCECs by using a Qiagen kit. A cDNA was synthesized by using the iScript cDNA synthesis kit. Subsequently, RT-qPCR was performed and result data was expressed as relative expression levels (fold) (FIGS. 5B to 5C).
For orientation: Real-time PCR tracks product formation cycle by cycle.

Assay [6] concerns MUC5AC in human conjunctiva epithelial cells (HConEpiC). The experiment in a line: Anti-MUC5AC fluorescence staining under high osmotic pressure. Type of assay: cell-based. The procedure:
First, human conjunctiva epithelial cells (HConEpiC) obtained after 4th passage of culture were seeded onto 24 wells and incubated for 24 hours, and then treated with high osmotic pressure of 450 mOsM simultaneously with the composition of the present disclosure having various concentrations (0, 5, 10, 20, 50, 100, and 200 ng/ml) of the HAPLN1 protein or Cyclosporine A (0.1 μM). After 72 hours of incubation, the cells were immobilized with 4% paraformaldehyde for 30 minutes and washed with a buffer. Subsequently, fluorescence staining was performed by using Anti-MUC5AC (DAPI labels the nuclei).

“Also recorded” adds a separate entry of the source.

B1: hyaluronan and proteoglycan link protein 1 (HAPLN1) (protein, listed as Homo sapiens)
chain: MKSLLLLVLISICWADHLSDNYTLDHDRAIHIQAENGPHLLVEAEQAKVFSHRGGNVTLPCKFYRDPTAFGSGIHKIRIKWTKLTSDYLKEVDVFVSMGYHKKTYGGYQGRVFLKGGSDSDASLVITDLTLEDYGRYKCEVIEGLEDDTVVVALDLQGVVFPYFPRLGRYNLNFHEAQQACLDQDAVIASFDQLYDAWRGGLDWCNAGWLSDGSVQYPITKPREPCGGQNTVPGVRNYGFWDKDKSRYDVFCFTSNFNGRFYYLIHPTKLTYDEAVQACLNDGAQIAKVGQIFAAWKILGYDRCDAGWLADGSVRYPISRPRRRCSPTEAAVRFVGFPDKKHKLYGVYCFRAYN
Consider B1, for which the “scratched surface covered by cell proliferation and migration” value in assay [1] (5 and 10 ng/ml, 30 hours, normal cells about 82%) is listed as “about 60%”. Moreover, the “cell proliferation and migration phenomena of scratched surfaces” value in assay [1] (5 to 100 ng/ml, 30 hours) is recorded as “observed over the entire area”. Also, the “area covered with migrated cells compared with Cyclosporin A” value in assay [1] (regardless of concentration, vs 0.1 μM Cyclosporin A) is “higher than 0.1 μM of Cyclosporin A”. In assay [2] (after 16 days of drug treatment, in proportion to the concentration), the “number of goblet cells compared to the dry eye disease model” value was “significantly increased”. Also, in assay [2] (high concentration (50 μg/ml)), the “number of goblet cells compared to Restasis” value is recorded as “far more increased”. The “cell viability, CCK-8 absorbances (450 nm)” value in assay [3] (5 to 100 ng/ml, incubated 24 hours or 48 hours, compared with normal cell group (314 mOsM)) is listed as “not less than or similar to that of a normal cell group; also recorded: increased”. Further, the “cell viability (CCK-8) compared with control drug Cyclosporin A” value in assay [3] (regardless of concentration, vs 0.1 to 0.5 μM Cyclosporin A) is given as “higher than 0.1 to 0.5 μM of Cyclosporin A”. Also, the “number of detached corneal epithelial cells” value in assay [4] (after 16 days of drug treatment, concentration dependent) is on record as “decreased”. In assay [4] (high concentration (50 μg/ml)), the “degree of detachment of corneal epithelial cells” value is “lowest”. The “expression level of MUC4 (FIG. 5B)” value in assay [5] is on record as “significantly increased”. In addition, the “numbers of cells secreting MUC5AC, compared with control” value in assay [6] (450 mOsM, 10, 20, 50, 100, and 200 ng/ml, 72 hours) is reported as “significantly greater than that of the normal control”. For the same molecule, the “numbers of cells secreting MUC5AC, compared with Cyclosporine A” value in assay [6] (450 mOsM, at some concentrations, vs Cyclosporine A 0.1 μM) is “greater than the case treated with Cyclosporine A”.
